From patent US7556938B1, “Nucleic acids encoding potassium channel interactors” (Millennium Pharmaceuticals, Inc., priority 1998, dated 2009)

T1: rKv4.3N (Rattus norvegicus, UniProt Q62897)
T1 construct: expressed in transfected cells; host or cells: yeast HF7c (bait), mated with Y187 (fish)
T1 sequence (Q62897 1-180): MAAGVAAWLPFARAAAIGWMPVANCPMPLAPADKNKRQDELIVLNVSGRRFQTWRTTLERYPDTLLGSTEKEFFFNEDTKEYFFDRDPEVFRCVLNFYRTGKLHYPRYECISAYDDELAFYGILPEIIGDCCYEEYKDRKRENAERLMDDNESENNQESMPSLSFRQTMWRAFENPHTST

T2: rKv4.2N (Rattus norvegicus, UniProt Q63881)
T2 construct: the N-terminal domains of Kv4.3, Kv4.2 were expressed as “baits” (Kv4.3N, Kv4.2N, respectively); expressed in transfected cells; host or cells: yeast HF7c (baits), mated with Y187 (fish)
T2 sequence (Q63881 1-184 limits assumed): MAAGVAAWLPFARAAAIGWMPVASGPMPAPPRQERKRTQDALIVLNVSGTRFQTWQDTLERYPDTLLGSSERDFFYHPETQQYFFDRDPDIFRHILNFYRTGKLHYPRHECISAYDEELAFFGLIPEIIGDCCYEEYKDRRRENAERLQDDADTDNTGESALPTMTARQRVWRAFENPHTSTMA

B1: Rat 19r: identical to Rat phosphatidylinositol (PTDINS) transfer protein alpha (protein)
chain: MVLLKEYRVILPVSVDEYQVGQLYSVAEASKNETGGGEGVEVLVNEPYEKDDGEKGQYTHKIYHLQSKVPTFVRMLAPEGALNIHEKAWNAYPYCRTVITNEYMKEDFLIKIETWHKPDLGTQENVHKLEPEAWKHVEAIYIDIADRSQVLSKDYKAEEDPAKFKSIKTGRGPLGPNWKQELVNQKDCPYMCAYKLVTVKFKWWGLQNKVENFIHKQEKRLFTNFHRQLFCWLDKWVDLTMDDIRRMEEETKRQLDEMRQKDPVKGMTADD
B2: Rat 5p: identical to rat Calpactin I light chain or P10 (protein)
chain: MPSQMEHAMETMMLTFHRFAGEKNYLTKEDLRVLMEREFPGFLENQKDPLAVDKIMKDLDQCRDGKVGFQSFLSLVAGLIIACNDYFVVHMKQKK
B3: Rat 7q: identical to RAB2 (rat RAS-related protein) (protein)
chain: MAYAYLFKYIIIGDTGVGKSCLLLQFTDKRFQPVHDLTIGVEFGARMITIDGKQIKLQIWDTAGQESFRSITRSYYRGAAGALLVYDITRRDTFNHLTTWLEDARQHSNSNMVIMLIGNKSDLESRREVKKEEGEAFAREHGLIFMETSAKTASNVEEAFINTAKEIYEKIQEGVFDINNEANGIKIGPQHAATNASHGGNQGGQQAGGGCC
B4: Rat 29x: identical at the amino acid level to rat SOCS-1 (Suppressor Of Cytokine Signaling) (protein)
chain: ARLPAPEHARQQPLLSGPEPGSSARVPVPGVASRRQPRGGKPPSGDGLESGPSPRPLLHARGEAGLHRQSGRVPHTGTAYFADEPTEAQAPGGFCVSPSLLGVRWPACATRTPGSLPLSPPSAQPRTLWPTPPAGPSSRMVARNQVAADNAISPASEPRRRPEPSSSSSSSSPAAPARPRPCPVVPAPAPGDTHFRTFRSHSDYRRITRTSALLDACGFYWGPLSVHGAHERLRAEPVGTFLVRDSRQRNCFFALSVKMASGPTSIRVHFQAGRFHLDGSRETFDCLFELLEHYVAAPRRMLGAPLRQRRVRPLQELCRQRIVAAVGRENLARIPLNPVLRDYLSSFPFQI

Each molecule was assayed against T1, rKv4.3N (assay: Yeast two-hybrid binding and specificity test, Kv4.3 N-terminal bait). Details: not given.
Description: The first 180 amino acids of rKv4.3 (described in Serdio P. et al. (1996) J. Neurophys 75:2174-2179) were amplified by PCR and cloned in frame into pGBT9 resulting in plasmid pFWA2, (hereinafter “bait”). This bait was transformed into the two-hybrid screening strain HF7c and tested for expression and self-activation. The bait was validated for expression by Western blotting.
(§1) Two-hybrid screens were carried out essentially as described in Bartel, P. et al. (1993) “Using the Two-Hybrid System to Detect Polypeptide-Polypeptide Interactions” in Cellular Interactions in Development: A Practical Approach, Hartley, D. A. ed. Oxford University Press, Oxford, pp. 153-179, with a bait-library pair of rkv4.3 bait-rat mid brain library. A filter disk beta-galactosidase (beta-gal) assay was performed essentially as previously described (Brill et al. (1994) Mol. Biol. Cell. 5:297-312). Clones that were positive for both reporter gene activity (His and beta-galactosidase) were scored and fish, plasmids were isolated from yeast, transformed into E. coli strain KC8, DNA plasmids were purified and the resulting plasmids were sequenced by conventional methods (Sanger F. et al. (1977) PNAS, 74: 5463-67).
(§2) Positive interactor clones were subjected to a binding specificity test where they were exposed to a panel of related and unrelated baits by a mating scheme previously described (Finley R. L. Jr. et al. (1994) PNAS, 91(26):12980-12984). Briefly, positive fish plasmids were transformed into Y187 and the panel of baits were transformed into HF7c. Transformed fish and bait cells were streaked out as stripes on selective medium plates, mated on YPAD plates, and tested for reporter gene activity.

Molecule | binding to rKv4.3N in yeast two-hybrid assay
B1 | binds
B2 | binds
B3 | binds
B4 | binds

Same assay, conditions: rKv4.3N versus rKv4.2N

Molecule | preference between rKv4.3N and rKv4.2N in yeast two-hybrid assay
B1 | slight preference for rKv4.3N
B3 | same strength
B4 | slight preference for rKv4.3N

These molecules were tested against T2, rKv4.2N (assay: Yeast two-hybrid binding and specificity test, Kv4.2 N-terminal bait). Details: not given.
Description: as §1, §2

Molecule | binding to rKv4.2N in yeast two-hybrid assay
B1 | binds
B2 | binds
B3 | binds
B4 | binds

What follows are molecules tested against T3, rKv1.1N (Rattus norvegicus, UniProt P10499) (assay: Yeast two-hybrid binding and specificity test, Kv1.1 N-terminal bait). Details: not given.
T3 construct: expressed in transfected cells; host or cells: yeast HF7c (baits), mated with Y187 (fish)
T3 sequence (P10499 1-164 limits assumed): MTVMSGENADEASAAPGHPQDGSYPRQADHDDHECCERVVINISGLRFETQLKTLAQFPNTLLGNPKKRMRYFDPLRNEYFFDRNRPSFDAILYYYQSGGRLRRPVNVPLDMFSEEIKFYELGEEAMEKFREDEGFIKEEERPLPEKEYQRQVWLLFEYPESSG
Description: as §1, §2

Molecule | binding to rKv1.1N in yeast two-hybrid assay
B1 | does not bind
B2 | does not bind
B3 | does not bind
B4 | does not bind
